# Measurements reported in the supplement of paper PMC9112550, “Optimization of the antimicrobial peptide Bac7 by deep mutational scanning” (BMC Biology, 2022).
# Test system: Escherichia coli TOP10
# Assay: shrunken log2 fold change of peptide-encoding DNA abundance (4.5 h post-induction vs induction); higher = less antimicrobial activity (less host growth inhibition)
# Conditions: time post-induction: 4.5 h; library: site-saturation at positions 5, 18, 19, 20
# 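Further: peptides expressed intracellularly from a pBAD plasmid library in pooled LB shake-flask culture, induced with 0.3% L-arabinose, DNA abundance read by NGS, three biological replicates, DESeq2 with apeglm shrinkage.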
row,Sequence,shrunken log2 fold change
1,RRIRKRPPRLPRPRPRPKWHPRP,0.0114
2,RRIRARPPRLPRPRPRPYVRPRP,-0.377
3,RRIRGRPPRLPRPRPRPQCNPRP,0.203
4,RRIRNRPPRLPRPRPRPKGVPRP,2.97
5,RRIRIRPPRLPRPRPRPADCPRP,0.035
6,RRIRIRPPRLPRPRPRPFGSPRP,0.00777
7,RRIRPRPPRLPRPRPRPMEAPRP,0.177
8,RRIRHRPPRLPRPRPRPCSKPRP,-0.0875
9,RRIRPRPPRLPRPRPRPSPVPRP,0.0207
10,RRIRIRPPRLPRPRPRPASSPRP,0.093
11,RRIRKRPPRLPRPRPRPEVKPRP,0.085
12,RRIRNRPPRLPRPRPRPERIPRP,-0.00936
13,RRIRQRPPRLPRPRPRPERCPRP,0.00749
14,RRIRARPPRLPRPRPRPAYWPRP,0.393
15,RRIRMRPPRLPRPRPRPFNSPRP,-0.326
16,RRIRDRPPRLPRPRPRPIKVPRP,0.00881
17,RRIRFRPPRLPRPRPRPEDSPRP,-0.00878
18,RRIRSRPPRLPRPRPRPGNMPRP,-0.12
19,RRIRTRPPRLPRPRPRPQSQPRP,-0.138
20,RRIRQRPPRLPRPRPRPYEVPRP,-0.31
21,RRIRHRPPRLPRPRPRPQAKPRP,-0.016
22,RRIRHRPPRLPRPRPRPGTRPRP,-0.13
23,RRIRGRPPRLPRPRPRPKWAPRP,0.155

row,Sequence,shrunken log2 fold change
1,RRIRVRPPRLPRPRPRPKLKPRP,0.00388
2,RRIRHRPPRLPRPRPRPMSYPRP,-0.0194
3,RRIRIRPPRLPRPRPRPWSCPRP,0.0678
4,RRIRCRPPRLPRPRPRPNEYPRP,-0.587
5,RRIRLRPPRLPRPRPRPSGMPRP,-0.204
6,RRIRNRPPRLPRPRPRPVMYPRP,-0.128
7,RRIRVRPPRLPRPRPRPIEEPRP,-0.181
8,RRIRARPPRLPRPRPRPHDQPRP,0.808
9,RRIRPRPPRLPRPRPRPGRPPRP,0.155
10,RRIRVRPPRLPRPRPRPCTLPRP,-0.196
11,RRIRDRPPRLPRPRPRPGTAPRP,0.0777
12,RRIRPRPPRLPRPRPRPACLPRP,0.0505
13,RRIRYRPPRLPRPRPRPEMEPRP,-0.0352
14,RRIRERPPRLPRPRPRPVPNPRP,-0.14
15,RRIRLRPPRLPRPRPRPQASPRP,0.0594
16,RRIRSRPPRLPRPRPRPYVRPRP,-0.0846
17,RRIRQRPPRLPRPRPRPKDRPRP,-0.115
18,RRIRYRPPRLPRPRPRPGVPPRP,0.241
19,RRIRFRPPRLPRPRPRPWAYPRP,-0.201
20,RRIRQRPPRLPRPRPRPDNHPRP,-0.35
21,RRIRPRPPRLPRPRPRPDKYPRP,-0.743
22,RRIRVRPPRLPRPRPRPEMIPRP,-0.0397
23,RRIRWRPPRLPRPRPRPTVLPRP,0.188

row,Sequence,shrunken log2 fold change
1,RRIRQRPPRLPRPRPRPKHMPRP,-0.237
2,RRIRARPPRLPRPRPRPFYRPRP,-0.178
3,RRIRKRPPRLPRPRPRPKDPPRP,0.367
4,RRIRVRPPRLPRPRPRPGLRPRP,0.663
5,RRIRCRPPRLPRPRPRPKCYPRP,-0.353
6,RRIRNRPPRLPRPRPRPNRMPRP,-0.385
7,RRIRKRPPRLPRPRPRPKWSPRP,0.506
8,RRIRARPPRLPRPRPRPAPTPRP,0.838
9,RRIRARPPRLPRPRPRPMPMPRP,0.695
10,RRIRSRPPRLPRPRPRPCVIPRP,-0.172
11,RRIRERPPRLPRPRPRPIMGPRP,-0.21
12,RRIRGRPPRLPRPRPRPQMDPRP,0.291
13,RRIRRRPPRLPRPRPRPSDKPRP,-0.492
14,RRIRCRPPRLPRPRPRPMSMPRP,-0.212
15,RRIRPRPPRLPRPRPRPHHCPRP,-0.257
16,RRIRPRPPRLPRPRPRPVDNPRP,0.0523
17,RRIRVRPPRLPRPRPRPTCCPRP,0.095
18,RRIRPRPPRLPRPRPRPYCCPRP,-0.384
19,RRIRFRPPRLPRPRPRPCIYPRP,-0.191
20,RRIRERPPRLPRPRPRPRQAPRP,0.0291
21,RRIRYRPPRLPRPRPRPPDWPRP,0.299
22,RRIRKRPPRLPRPRPRPGHEPRP,0.127
23,RRIRPRPPRLPRPRPRPLPNPRP,0.0283

row,Sequence,shrunken log2 fold change
1,RRIRIRPPRLPRPRPRPWPMPRP,0.0828
2,RRIRKRPPRLPRPRPRPPRGPRP,1.13
3,RRIRERPPRLPRPRPRPSIPPRP,-0.758
4,RRIRCRPPRLPRPRPRPDYFPRP,-0.248
5,RRIRMRPPRLPRPRPRPHTCPRP,-0.0858
6,RRIRVRPPRLPRPRPRPLVIPRP,-0.429
7,RRIRMRPPRLPRPRPRPKSGPRP,-0.101
8,RRIRPRPPRLPRPRPRPWRYPRP,-0.0238
9,RRIRCRPPRLPRPRPRPWLEPRP,0.117
10,RRIRYRPPRLPRPRPRPMFYPRP,-1.04
11,RRIRDRPPRLPRPRPRPRVQPRP,-0.183
12,RRIRPRPPRLPRPRPRPYQKPRP,0.0104
13,RRIRIRPPRLPRPRPRPHEWPRP,0.0272
14,RRIRSRPPRLPRPRPRPQLSPRP,-0.106
15,RRIRRRPPRLPRPRPRPDESPRP,0.037
16,RRIRLRPPRLPRPRPRPHFMPRP,0.0603
17,RRIRQRPPRLPRPRPRPSYCPRP,0.103
18,RRIRGRPPRLPRPRPRPDPRPRP,0.716
19,RRIRRRPPRLPRPRPRPPNFPRP,0.0782
20,RRIRNRPPRLPRPRPRPYQCPRP,-0.00804
21,RRIRPRPPRLPRPRPRPRVIPRP,0.033
22,RRIRYRPPRLPRPRPRPYVVPRP,-0.24
